Experimental data: ChEMBL document CHEMBL3860051, “Phosphorothioate analogs of P1,P3-di(nucleosid-5'-yl) triphosphates: Synthesis, assignment of the absolute configuration at P-atoms and P-stereodependent recognition by Fhit hydrolase” (Bioorg Med Chem, 2016)

Tests used:
[1] = tested on: Nc1ncnc2c1ncn2[C@@H]1O[C@H](COP(=O)(O)OP(=O)(O)OP(=O)(O)OC[C@H]2O[C@@H](n3cnc4c(N)ncnc43)[C@H](O)[C@@H]2O)[C@@H](O)[C@H]1O; test: Activity at human Fhit expressed in Escherichia coli SG100 assessed as enzyme Kcat by Michaelis-Menten equation
[2] = tested on: Nc1ncnc2c1ncn2[C@@H]1O[C@H](CO[P@@](=O)(S)OP(=O)(O)O[P@](=O)(S)OC[C@H]2O[C@@H](n3cnc4c(N)ncnc43)[C@H](O)[C@@H]2O)[C@@H](O)[C@H]1O; test: (§1) Activity at human Fhit expressed in Escherichia coli BL21 assessed as enzyme Km by Michaelis-Menten equation
[3] = tested on: Nc1ncnc2c1ncn2[C@@H]1O[C@H](CO[P@](=O)(S)OP(=O)(O)O[P@@](=O)(S)OC[C@H]2O[C@@H](n3cnc4c(N)ncnc43)[C@H](O)[C@@H]2O)[C@@H](O)[C@H]1O; test: as §1
[4] = tested on: Nc1ncnc2c1ncn2[C@@H]1O[C@H](CO[P@](=O)(S)OP(=O)(O)O[P@](=O)(S)OC[C@H]2O[C@@H](n3cnc4c(N)ncnc43)[C@H](O)[C@@H]2O)[C@@H](O)[C@H]1O; test: as §1
[5] = tested on: Nc1ncnc2c1ncn2[C@@H]1O[C@H](CO[P@](=O)(S)OP(=O)(O)OP(=O)(O)OCc2cccc([N+](=O)[O-])c2)[C@@H](O)[C@H]1O; test: (§2) Activity at human Fhit expressed in Escherichia coli SG100 assessed as ratio of enzyme Kcat to Km by Michaelis-Menten equation
[6] = tested on: Nc1ncnc2c1ncn2[C@@H]1O[C@H](COP(=O)(O)OP(=O)(O)OP(=O)(O)OC[C@H]2O[C@@H](n3cnc4c(N)ncnc43)[C@H](O)[C@@H]2O)[C@@H](O)[C@H]1O; test: as §2
[7] = tested on: Nc1ncnc2c1ncn2[C@@H]1O[C@H](CO[P@@](=O)(S)OP(=O)(O)O[P@](=O)(S)OC[C@H]2O[C@@H](n3cnc4c(N)ncnc43)[C@H](O)[C@@H]2O)[C@@H](O)[C@H]1O; test: (§3) Activity at human Fhit expressed in Escherichia coli BL21 assessed as ratio of enzyme Kcat to Km by Michaelis-Menten equation
[8] = tested on: Nc1ncnc2c1ncn2[C@@H]1O[C@H](CO[P@](=O)(S)OP(=O)(O)O[P@@](=O)(S)OC[C@H]2O[C@@H](n3cnc4c(N)ncnc43)[C@H](O)[C@@H]2O)[C@@H](O)[C@H]1O; test: as §3
[9] = tested on: Nc1ncnc2c1ncn2[C@@H]1O[C@H](CO[P@](=O)(S)OP(=O)(O)O[P@](=O)(S)OC[C@H]2O[C@@H](n3cnc4c(N)ncnc43)[C@H](O)[C@@H]2O)[C@@H](O)[C@H]1O; test: as §3
[10] = tested on: Nc1ncnc2c1ncn2[C@@H]1O[C@H](CO[P@@](=O)(S)OP(=O)(O)O[P@](=O)(S)OC[C@H]2O[C@@H](n3cnc4c(N)ncnc43)[C@H](O)[C@@H]2O)[C@@H](O)[C@H]1O; test: (§4) Activity at human Fhit expressed in Escherichia coli BL21 assessed as enzyme Kcat by Michaelis-Menten equation
[11] = tested on: Nc1ncnc2c1ncn2[C@@H]1O[C@H](CO[P@](=O)(S)OP(=O)(O)O[P@@](=O)(S)OC[C@H]2O[C@@H](n3cnc4c(N)ncnc43)[C@H](O)[C@@H]2O)[C@@H](O)[C@H]1O; test: as §4
[12] = tested on: Nc1ncnc2c1ncn2[C@@H]1O[C@H](CO[P@](=O)(S)OP(=O)(O)O[P@](=O)(S)OC[C@H]2O[C@@H](n3cnc4c(N)ncnc43)[C@H](O)[C@@H]2O)[C@@H](O)[C@H]1O; test: as §4
[13] = tested on: Nc1ncnc2c1ncn2[C@@H]1O[C@H](CO[P@](=O)(S)OP(=O)(O)OP(=O)(O)OCc2cccc([N+](=O)[O-])c2)[C@@H](O)[C@H]1O; test: (§5) Activity at human Fhit expressed in Escherichia coli SG100 assessed as enzyme Km by Michaelis-Menten equation
[14] = tested on: Nc1ncnc2c1ncn2[C@@H]1O[C@H](COP(=O)(O)OP(=O)(O)OP(=O)(O)OC[C@H]2O[C@@H](n3cnc4c(N)ncnc43)[C@H](O)[C@@H]2O)[C@@H](O)[C@H]1O; test: as §5
[15] = tested on: Nc1ncnc2c1ncn2[C@@H]1O[C@H](CO[P@](=O)(S)OP(=O)(O)OP(=O)(O)OCc2cccc([N+](=O)[O-])c2)[C@@H](O)[C@H]1O; test: Activity at human Fhit expressed in Escherichia coli SG100 assessed as enzyme Vmax by Michaelis-Menten equation
[16] = molecular target: Bis(5'-adenosyl)-triphosphatase (Homo sapiens) (UniProt P49789); test: Activity at human Fhit expressed in Escherichia coli BL 21 assessed as enzyme Km by Michaelis-Menten equation relative to control
Bis(5'-adenosyl)-triphosphatase (Homo sapiens), sequence (P49789 whole entry, looked up): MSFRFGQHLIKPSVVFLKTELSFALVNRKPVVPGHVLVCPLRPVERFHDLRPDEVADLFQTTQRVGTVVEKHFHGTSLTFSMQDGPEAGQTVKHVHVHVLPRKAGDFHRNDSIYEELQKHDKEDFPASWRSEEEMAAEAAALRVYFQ

Bis(5'-adenosyl)-triphosphatase (Homo sapiens), P49789, sequence (P49789 whole entry): as the sequence (P49789 whole entry, looked up) above

In the case of “Bis(5'-adenosyl)-triphosphatase (Homo sapiens), P49789”, the kcat [1] is reported as 73 s⁻¹, the Km [2] is reported as 5.32 µM and the Km [3] is reported as 3.54 µM. For the same molecule, the Km [4] was 1.25 µM, the kcat/Km [5] was 0.125 ×10⁶ /s/M and the kcat/Km [6] was 3.8 ×10⁷ /M/s. The kcat/Km [7] was 1.7 ×10² /M/s, the kcat/Km [8] was 1.4 ×10² /M/s and the kcat/Km [9] was 24 ×10² /M/s. For the same molecule, the kcat [10] was 8.4 ×10⁻⁴ /s, the kcat [11] was 4.8 ×10⁻⁴ /s and the kcat [12] was 29.9 ×10⁻⁴ /s. It also gave a Km [13] of 2.8 µM, a Km [14] of 1.9 µM and a Vmax (10'-6mol/min/ug) [15] of 0.35.

Work on `Nc1ncnc2c1ncn2[C@@H]1O[C@H](CO[P@](=O)(S)OP(=O)(O)O[P@](=O)(S)OC[C@H]2O[C@@H](n3cnc4c(N)ncnc43)[C@H](O)[C@@H]2O)[C@@H](O)[C@H]1O` yielded a fold change (FC) [16] of 2.8.

With `Nc1ncnc2c1ncn2[C@@H]1O[C@H](CO[P@](=O)(S)OP(=O)(O)O[P@@](=O)(S)OC[C@H]2O[C@@H](n3cnc4c(N)ncnc43)[C@H](O)[C@@H]2O)[C@@H](O)[C@H]1O` the fold change (FC) [16] was 2.8.

`Nc1ncnc2c1ncn2[C@@H]1O[C@H](CO[P@@](=O)(S)OP(=O)(O)O[P@](=O)(S)OC[C@H]2O[C@@H](n3cnc4c(N)ncnc43)[C@H](O)[C@@H]2O)[C@@H](O)[C@H]1O` was tested, and the fold change (FC) [16] was 2.8.
